Source: patent US20230257479A1 (Genmab, published 2023)
Residue numbers refer to the chain shown, from its start. Names and notes keep the numbering of the source.

Columns and labels:
[1] = molecular target: T1, full length cynomolgus monkey 5T4 on transfected HEK-293 cells (cynomolgus monkey, UniProt Q4R8Y9 35-420); assay: flow cytometry, HEK-293 cells transfected with cynomolgus monkey 5T4, PE secondary [II)H]
T1 construct: Uniprot Q4R8Y9; residues 1-34 are the signal peptide; also called cynomolgus 5T4
T1 sequence: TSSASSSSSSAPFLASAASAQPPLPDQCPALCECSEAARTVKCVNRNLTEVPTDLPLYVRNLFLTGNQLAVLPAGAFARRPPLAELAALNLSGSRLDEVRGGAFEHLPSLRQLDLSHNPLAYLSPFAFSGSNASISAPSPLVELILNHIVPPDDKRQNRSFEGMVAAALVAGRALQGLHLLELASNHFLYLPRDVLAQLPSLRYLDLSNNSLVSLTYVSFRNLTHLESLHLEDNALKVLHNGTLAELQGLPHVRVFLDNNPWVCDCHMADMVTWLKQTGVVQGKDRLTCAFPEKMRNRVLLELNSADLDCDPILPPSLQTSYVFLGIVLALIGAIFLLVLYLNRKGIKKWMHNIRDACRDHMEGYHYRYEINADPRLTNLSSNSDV

[2] = molecular target: T2, full length human 5T4 (SEQ ID NO: 1) on cells (human, UniProt Q13641 32-420); assay: flow cytometry, HeLa cells, PE secondary [II)G]
T2 construct: Uniprot Q13641; residues 1-31 are the signal peptide; Used both for transfected HEK-293 cells and for 5T4-expressing human tumor cell lines
T2 sequence: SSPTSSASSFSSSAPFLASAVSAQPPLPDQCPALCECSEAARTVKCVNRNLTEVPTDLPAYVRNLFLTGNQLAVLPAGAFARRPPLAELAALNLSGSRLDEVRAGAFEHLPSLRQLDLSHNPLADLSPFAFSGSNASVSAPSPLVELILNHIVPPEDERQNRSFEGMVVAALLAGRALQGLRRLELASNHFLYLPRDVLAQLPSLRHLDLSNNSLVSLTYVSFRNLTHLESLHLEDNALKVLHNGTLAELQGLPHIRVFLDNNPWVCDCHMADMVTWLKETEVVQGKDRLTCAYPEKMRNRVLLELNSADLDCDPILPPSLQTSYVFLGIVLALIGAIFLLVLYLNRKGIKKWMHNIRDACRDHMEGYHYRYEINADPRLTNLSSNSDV

[3] = molecular target: T2, full length human 5T4 (SEQ ID NO: 1) on …; assay: flow cytometry, HEK-293 cells transfected with human 5T4, FITC secondary [I)B]
[4] = molecular target: T2, full length human 5T4 (SEQ ID NO: 1) on …; assay: flow cytometry, MDA-MB-231 cells, FITC secondary [I)C]
[5] = molecular target: T2, full length human 5T4 (SEQ ID NO: 1) on …; assay: flow cytometry, HeLa cells, FITC secondary [I)C]
[6] = molecular target: T2, full length human 5T4 (SEQ ID NO: 1) on …; assay: flow cytometry, HEK-293 cells transfected with human 5T4, PE secondary [II)B]
[7] = molecular target: T1, full length cynomolgus monkey 5T4 on …; assay: flow cytometry, HEK-293 cells transfected with cynomolgus monkey 5T4, FITC secondary [I)B]
[8] = molecular target: T2, full length human 5T4 (SEQ ID NO: 1) on …; assay: flow cytometry, MDA-MB-231 cells, PE secondary [III)B]
[9] = molecular target: T2, full length human 5T4 (SEQ ID NO: 1) on …; assay: flow cytometry, HeLa cells, PE secondary [II)B]
[10] = molecular target: T1, full length cynomolgus monkey 5T4 on …; assay: flow cytometry, HEK-293 cells transfected with cynomolgus monkey 5T4, PE secondary [II)B]
[11] = molecular target: T2, full length human 5T4 (SEQ ID NO: 1) on …; assay: flow cytometry, MDA-MB-231 cells, PE secondary [III)D]
[12] = molecular target: T1, full length cynomolgus monkey 5T4 on …; assay: flow cytometry, HEK-293 cells transfected with cynomolgus monkey 5T4, PE secondary [II)D]
[13] = molecular target: T2, full length human 5T4 (SEQ ID NO: 1) on …; assay: flow cytometry, HeLa cells, PE secondary [II)D]
[14] = molecular target: T1, full length cynomolgus monkey 5T4 on …; assay: flow cytometry, HEK-293 cells transfected with cynomolgus monkey 5T4, PE secondary [II)F]
[15] = molecular target: T3, human 5T4ECDHis (mature protein of SEQ ID NO: 99) (human, UniProt Q13641 32-355); assay: BLI cross-block; competitor (immobilised): IgG1-5T4-059-FEAR
T3 construct: ECD of human 5T4 (aa 1-355 of Uniprot Q13641) with C-terminal His tag; residues 1-31 are the signal peptide; also called ECD of human 5T4 with a C-terminal His tag
T3 sequence: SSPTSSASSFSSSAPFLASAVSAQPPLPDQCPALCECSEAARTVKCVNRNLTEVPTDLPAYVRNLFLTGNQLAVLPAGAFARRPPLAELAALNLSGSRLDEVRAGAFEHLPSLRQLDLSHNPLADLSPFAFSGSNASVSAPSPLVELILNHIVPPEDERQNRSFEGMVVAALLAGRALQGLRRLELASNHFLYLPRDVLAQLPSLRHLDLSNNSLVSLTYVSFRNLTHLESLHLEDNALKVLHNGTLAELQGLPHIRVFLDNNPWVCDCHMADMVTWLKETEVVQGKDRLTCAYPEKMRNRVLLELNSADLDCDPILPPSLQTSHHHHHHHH

[16] = molecular target: T3, human 5T4ECDHis (mature protein of SEQ …); assay: BLI cross-block; competitor (immobilised): IgG1-5T4-207-FEAR
[17] = molecular target: T3, human 5T4ECDHis (mature protein of SEQ …); assay: BLI cross-block; competitor (immobilised): IgG1-5T4-076-FEAR
[18] = molecular target: T3, human 5T4ECDHis (mature protein of SEQ …); assay: BLI cross-block; competitor (immobilised): IgG1-5T4-106-FEAR
[19] = molecular target: T3, human 5T4ECDHis (mature protein of SEQ …); assay: BLI cross-block; competitor (immobilised): IgG1-5T4-H8-FEAR
[20] = molecular target: T3, human 5T4ECDHis (mature protein of SEQ …); assay: BLI cross-block; competitor (immobilised): IgG1-5T4-A3-F405L
[21] = molecular target: T2, full length human 5T4 (SEQ ID NO: 1) on …; assay: flow cytometry, MDA-MB-231 cells, PE secondary [III)E]
[22] = molecular target: T3, human 5T4ECDHis (mature protein of SEQ …); assay: BLI cross-block; competitor (immobilised): IgG1-5T4-A1-F405L
[23] = molecular target: T3, human 5T4ECDHis (mature protein of SEQ …); assay: BLI cross-block; competitor (immobilised): IgG1-5T4-085-FEAR
[24] = molecular target: T3, human 5T4ECDHis (mature protein of SEQ …); assay: BLI cross-block; competitor (immobilised): IgG1-5T4-127-FEAR
[25] = molecular target: T3, human 5T4ECDHis (mature protein of SEQ …); assay: BLI cross-block; competitor (immobilised): IgG1-5T4-226-FEAR

B1: bsIgG1-huCD3-H101G-FEALx5T4-A1-FEAR (bispecific antibody)
heavy: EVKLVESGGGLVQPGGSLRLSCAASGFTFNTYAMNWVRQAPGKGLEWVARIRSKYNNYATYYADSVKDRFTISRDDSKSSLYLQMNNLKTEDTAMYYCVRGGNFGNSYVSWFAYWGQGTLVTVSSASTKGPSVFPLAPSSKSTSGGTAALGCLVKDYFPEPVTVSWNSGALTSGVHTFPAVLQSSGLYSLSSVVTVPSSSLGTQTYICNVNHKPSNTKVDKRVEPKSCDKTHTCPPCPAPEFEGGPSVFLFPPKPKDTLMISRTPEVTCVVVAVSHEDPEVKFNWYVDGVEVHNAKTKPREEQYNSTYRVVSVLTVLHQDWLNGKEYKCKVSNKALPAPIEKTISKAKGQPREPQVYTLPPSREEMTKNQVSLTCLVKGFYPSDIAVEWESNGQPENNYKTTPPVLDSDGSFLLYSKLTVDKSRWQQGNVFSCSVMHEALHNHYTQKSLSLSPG
light: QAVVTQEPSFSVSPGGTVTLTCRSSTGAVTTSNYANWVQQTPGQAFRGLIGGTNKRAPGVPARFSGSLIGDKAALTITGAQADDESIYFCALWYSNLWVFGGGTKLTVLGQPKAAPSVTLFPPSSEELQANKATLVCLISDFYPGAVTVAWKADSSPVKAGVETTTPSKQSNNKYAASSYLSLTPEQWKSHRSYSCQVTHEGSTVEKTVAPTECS
VH: QIQLVQSGPELKKPGETVKISCKASGYTFTNFGMNWVKQGPGEGLKWMGWINTNTGEPRYAEEFKGRFAFSLETTASTAYLQINNLKNEDTATYFCARDWDGAYFFDYWGQGTTLTVSS
VL: SIVMTQTPKFLLVSAGDRVTITCKASQSVSNDVAWYQQKPGQSPKLLINFATNRYTGVPNRFTGSGYGTDFTFTISTVQAEDLALYFCQQDYSSPWTFGGGTKLEIK
notes: Fab-arm exchange product
binding result [1]: binds
binding result [2]: binds

B2: IgG1-5T4-A1-FEAR (antibody, V domains shown)
VH: B1 VH
VL: B1 VL
notes: Based on A1 from Wyeth; IgG1 with L234F, L235E, D265A, K409R (FEAR)
EC50 (read off the curve) [1]: ~0.1 µg/mL
binding result [2]: binds

B3: bsIgG1-huCD3-H101G-FEALx5T4-226-FEAR (bispecific antibody)
heavy: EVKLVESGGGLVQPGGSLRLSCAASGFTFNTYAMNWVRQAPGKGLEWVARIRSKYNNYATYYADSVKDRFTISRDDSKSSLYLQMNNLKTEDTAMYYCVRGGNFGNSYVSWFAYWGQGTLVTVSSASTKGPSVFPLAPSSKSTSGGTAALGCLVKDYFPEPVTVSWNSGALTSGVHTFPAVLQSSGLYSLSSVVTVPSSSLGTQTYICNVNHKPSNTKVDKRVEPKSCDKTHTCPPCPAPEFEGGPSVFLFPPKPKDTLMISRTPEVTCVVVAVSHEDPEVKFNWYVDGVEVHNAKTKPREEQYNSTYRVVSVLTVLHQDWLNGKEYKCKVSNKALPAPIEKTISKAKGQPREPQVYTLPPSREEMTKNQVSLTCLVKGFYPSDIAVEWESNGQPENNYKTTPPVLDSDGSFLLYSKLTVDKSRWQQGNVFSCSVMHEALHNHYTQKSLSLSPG
light: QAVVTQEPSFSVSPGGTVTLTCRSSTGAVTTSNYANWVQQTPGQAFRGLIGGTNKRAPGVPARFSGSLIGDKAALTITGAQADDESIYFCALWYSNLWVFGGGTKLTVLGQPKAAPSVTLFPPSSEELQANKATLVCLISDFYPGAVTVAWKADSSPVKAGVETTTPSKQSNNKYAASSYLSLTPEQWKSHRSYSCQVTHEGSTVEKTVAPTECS
VH: QVQLQQWGAGLLKPSETLSLTCAVYGGSFSGYYWSWIRQPPGKGLEWIGEIDHSGSTNYNPSLKSRVTISVDTSKNQFSLKLSSVTAADTAVYYCAAWFGELWDYYYGMDVWGQGTTVTVSS
VL: EIVLTQSPATLSLSPGERATLSCRASQSVSSFLAWYQQKPGQAPRLLIYDASNRATGIPARFSGSGSGTDFTLTISSLEPEDFAVYYCQQRSNWPLTFGQGTRLEIK
notes: Fab-arm exchange product
EC50 (read off the curve) [3]: ~0.2 µg/mL
EC50 (read off the curve) [4]: ~0.1 µg/mL
EC50 (read off the curve) [5]: ~0.02 µg/mL
EC50 (read off the curve) [6]: ~0.1 µg/mL
EC50 (read off the curve) [7]: ~0.1 µg/mL
EC50 (read off the curve) [8]: ~0.04 µg/mL
EC50 (read off the curve) [9]: ~0.04 µg/mL
EC50 (read off the curve) [10]: ~0.06 µg/mL

B4: bsIgG1-huCD3-H101G-FEALx5T4-106-FEAR (bispecific antibody)
heavy: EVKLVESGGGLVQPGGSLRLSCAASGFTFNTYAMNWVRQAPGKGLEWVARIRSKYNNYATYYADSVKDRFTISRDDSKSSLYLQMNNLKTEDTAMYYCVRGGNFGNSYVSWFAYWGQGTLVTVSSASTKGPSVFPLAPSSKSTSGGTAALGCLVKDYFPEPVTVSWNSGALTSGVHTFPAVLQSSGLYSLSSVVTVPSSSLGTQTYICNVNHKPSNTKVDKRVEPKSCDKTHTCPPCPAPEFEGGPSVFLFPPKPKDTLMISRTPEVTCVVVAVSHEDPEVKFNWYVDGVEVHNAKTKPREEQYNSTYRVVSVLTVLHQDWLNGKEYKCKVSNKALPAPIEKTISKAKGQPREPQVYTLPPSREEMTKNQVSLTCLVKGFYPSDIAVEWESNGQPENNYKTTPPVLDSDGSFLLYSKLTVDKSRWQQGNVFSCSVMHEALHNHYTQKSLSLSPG
light: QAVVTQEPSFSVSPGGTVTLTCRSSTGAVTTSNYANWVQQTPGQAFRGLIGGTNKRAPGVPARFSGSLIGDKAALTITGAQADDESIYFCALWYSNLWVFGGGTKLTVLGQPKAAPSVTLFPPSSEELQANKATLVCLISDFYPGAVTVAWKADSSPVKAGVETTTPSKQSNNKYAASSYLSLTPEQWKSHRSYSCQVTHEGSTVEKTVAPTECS
VH: EVQLVQSGAEVKKPGESLKISCKGSGYRFTSYWIGWVRQMPGKGLEWMGIIYPGDSDARYSPSFQGQVTISADKSISTAYLQWSSLKASDTGMYYCARSVLFDYWGQGTLVTVSS
VL: AIQLTQSPSSLSASVGDRVTITCRASQGISSALAWYQQKPGKAPKLLIYDVSNLESGVPSRFSGSGSGTDFTLTISSLQPEDFATYYCQQFNSYPHTFGQGTKLEIK
notes: Fab-arm exchange product
EC50 (read off the curve) [11]: ~0.1 µg/mL
binding result [12]: binds
EC50 (read off the curve) [13]: ~0.1 µg/mL

B5: IgG1-5T4-085-FEAR (antibody, V domains shown)
VH: EVQLLESGGGLVQPGGSLRLSCAASGFTFSSYAMSWVRQAPGKGLEWVSAISGSGGSTYNADSVKGRFTIFRDNSKNTLYLHMNSLRAEDTAVYYCARDPGYNNVEYLDHWGQGTLVTVSS
VL: B4 VL with V51A, N53S, H96L, Q100G, L104V
notes: Monospecific, bivalent human IgG1 kappa with L234F, L235E, D265A, K409R (FEAR)
EC50 (read off the curve) [14]: ~0.008 µg/mL
corrected association response [15]: -0.02 nm
corrected association response [16]: 1.03 nm
corrected association response [17]: -0.02 nm
corrected association response [18]: -0.04 nm
corrected association response [19]: -0.02 nm
corrected association response [20]: 0 nm
EC50 (read off the curve) [21]: ~0.04 µg/mL
corrected association response [22]: 0.72 nm
corrected association response [23]: -0.01 nm
corrected association response [24]: -0.01 nm
corrected association response [25]: 1.35 nm
